Results from patent US20100069815A1.

Assays:
[1] = biological target: CD2 on CD2 positive cells in human peripheral blood (human) (UniProt P06729); assay: specificity control, cells recovered after the column (not adsorbed), with biotin block; flow cytometry; mean ± SD of 3
[2] = biological target: CD2 on CD2 positive cells in human peripheral blood (human) (UniProt P06729); assay: specificity control, cells recovered after the column (not adsorbed), without biotin block; flow cytometry; mean ± SD of 3
[3] = biological target: CD8 on CD8 positive cells in human peripheral blood (human) (UniProt P01732); assay: specificity control, cells recovered after the column (not adsorbed); flow cytometry; mean ± SD of 3
Sequence of CD8 on CD8 positive cells in human peripheral blood (human) (P01732 22-235): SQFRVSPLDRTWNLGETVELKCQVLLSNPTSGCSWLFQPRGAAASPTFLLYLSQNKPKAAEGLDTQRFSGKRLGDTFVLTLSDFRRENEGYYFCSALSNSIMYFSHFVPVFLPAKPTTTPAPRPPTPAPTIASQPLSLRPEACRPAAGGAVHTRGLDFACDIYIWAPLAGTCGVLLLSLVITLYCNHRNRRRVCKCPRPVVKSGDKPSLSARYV

Sequence of CD2 on CD2 positive cells in human peripheral blood (human) (P06729 25-351): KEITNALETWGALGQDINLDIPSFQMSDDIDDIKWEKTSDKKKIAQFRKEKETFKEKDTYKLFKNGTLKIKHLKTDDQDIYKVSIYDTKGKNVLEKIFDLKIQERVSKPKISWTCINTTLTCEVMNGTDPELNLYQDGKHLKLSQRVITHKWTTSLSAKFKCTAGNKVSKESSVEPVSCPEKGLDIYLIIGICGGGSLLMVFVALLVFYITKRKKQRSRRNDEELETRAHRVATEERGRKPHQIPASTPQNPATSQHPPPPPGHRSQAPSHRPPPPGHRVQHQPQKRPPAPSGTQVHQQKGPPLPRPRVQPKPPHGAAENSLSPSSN

CD2 positive cell recovery rate (%) [1]	CD2 positive cell recovery rate (%) [2]	CD8 positive cell recovery rate (%) [3]	Substance
78.7%	76.4%	–	4G7 scFv-SA
–	–	78.9%	Leu3a scFv-Normal
